Source: patent US20090252729A1 (Biogen, published 2009)

T1: cynomolgus FcγR IIb (CD32b) (cynomolgus, UniProt A0A140HDP4 43-217)
T1 sequence: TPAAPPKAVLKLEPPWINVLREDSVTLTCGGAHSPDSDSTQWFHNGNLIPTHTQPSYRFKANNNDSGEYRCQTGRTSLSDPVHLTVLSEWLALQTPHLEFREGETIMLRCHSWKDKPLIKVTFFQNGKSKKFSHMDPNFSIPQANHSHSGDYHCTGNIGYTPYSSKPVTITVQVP

T2: cynomolgus FcγR IIa (CD32a) (cynomolgus, UniProt A0A140HDN0 28-215)
T2 sequence: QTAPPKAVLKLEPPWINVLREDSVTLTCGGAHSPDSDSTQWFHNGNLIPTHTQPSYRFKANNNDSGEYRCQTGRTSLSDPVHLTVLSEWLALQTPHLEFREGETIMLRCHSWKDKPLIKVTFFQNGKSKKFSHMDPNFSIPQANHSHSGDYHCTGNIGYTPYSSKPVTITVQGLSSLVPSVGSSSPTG

T3: human FcγR IIa (CD32a) (human, UniProt P12318 34-217, limits assumed)
T3 sequence (looked up): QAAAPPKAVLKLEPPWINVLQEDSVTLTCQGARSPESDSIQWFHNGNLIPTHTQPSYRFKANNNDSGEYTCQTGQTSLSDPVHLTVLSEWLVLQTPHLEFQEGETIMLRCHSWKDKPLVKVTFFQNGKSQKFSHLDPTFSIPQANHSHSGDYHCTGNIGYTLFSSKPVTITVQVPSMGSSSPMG

T4: human FcγR IIb (CD32b) (human, UniProt P31994 43-217, limits assumed)
T4 sequence (looked up): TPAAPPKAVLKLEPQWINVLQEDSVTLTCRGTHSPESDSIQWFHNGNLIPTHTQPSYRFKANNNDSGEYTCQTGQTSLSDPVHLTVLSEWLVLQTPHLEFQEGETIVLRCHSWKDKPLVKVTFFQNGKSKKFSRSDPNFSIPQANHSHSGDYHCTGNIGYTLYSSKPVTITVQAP

T5: human LTα1β2 on phorbol myristate acetate activated II-23 cells (human, UniProt P01374 35-205; Q06643 1-244)
T5 construct: whole, on cells
T5 sequence (looked up) 1: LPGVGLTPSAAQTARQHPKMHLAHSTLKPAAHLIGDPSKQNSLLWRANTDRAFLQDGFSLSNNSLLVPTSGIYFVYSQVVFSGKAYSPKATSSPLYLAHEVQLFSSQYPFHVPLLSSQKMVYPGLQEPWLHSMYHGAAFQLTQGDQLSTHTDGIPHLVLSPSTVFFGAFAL
T5 sequence (looked up) 2: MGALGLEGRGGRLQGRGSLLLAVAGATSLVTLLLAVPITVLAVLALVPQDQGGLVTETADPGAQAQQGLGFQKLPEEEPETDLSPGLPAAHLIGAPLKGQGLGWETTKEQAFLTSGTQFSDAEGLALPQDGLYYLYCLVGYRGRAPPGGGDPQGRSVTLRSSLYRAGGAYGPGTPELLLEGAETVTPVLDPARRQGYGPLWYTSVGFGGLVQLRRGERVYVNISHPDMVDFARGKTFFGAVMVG

T6: LTα1β2 (coated on ELISA plates) (Homo sapiens (Human), UniProt P01374 35-205; Q06643 49-244, Heterotrimer of one alpha and two beta chains, as the name says.)
T6 construct: Heterotrimer of one alpha and two beta chains by its name; also called LTa1β2; copies: 1 + 1
T6 sequence (alpha): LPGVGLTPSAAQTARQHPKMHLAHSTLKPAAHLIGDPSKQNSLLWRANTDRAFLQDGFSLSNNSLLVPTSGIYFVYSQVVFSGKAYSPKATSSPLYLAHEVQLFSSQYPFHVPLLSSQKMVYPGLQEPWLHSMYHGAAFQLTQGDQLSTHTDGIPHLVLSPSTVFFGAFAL
T6 sequence (beta): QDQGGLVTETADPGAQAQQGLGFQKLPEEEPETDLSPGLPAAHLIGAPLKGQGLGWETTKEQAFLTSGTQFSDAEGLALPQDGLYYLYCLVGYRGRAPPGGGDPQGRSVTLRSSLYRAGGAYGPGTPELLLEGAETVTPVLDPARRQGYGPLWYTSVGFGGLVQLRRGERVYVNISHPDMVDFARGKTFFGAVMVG


How the values were obtained:
[1] = molecular target: T7, human FcRIII-GST (CD16a, V158) (human, UniProt P08637 17-208, limits assumed); experiment: Alphascreen competition assay, huCD16a V158-GST on anti-GST acceptor beads; competitor: biotinylated wild-type IgG1 on streptavidin donor beads; set-up: IC50 (read off the curve): unit not given here
T7 construct: also called human FcγRIII; FcγRIII (CD16a); not shown: GST tag
Description: (§1) The ability of scFc antibodies comprising GGGGS (“1×-G4S”) or (GGGS)3 (“3×-G4S”) linkers to engage Fcγ receptors was also evaluated in an Amplified Luminescent Proximity Homogeneous Assay (Alphascreen®; Perkin Elmer). Laser excitation (680 nm) of a donor bead generates singlet oxygen which, if in close proximity to an acceptor bead, initiates a cascase of events ultimately leading to fluorescence emission at 520-620 nm. Donor and acceptor beads decorated with ligand and receptor proteins, respectively, are brought into desired proximity only when the receptor and ligand become functionally engaged.
(§2) The Alphascreen® assay was performed in a competitive format in which serial dilutions of test antibodies (WT IgG1 or scFc) were incubated with human FcRIII-GST (CD16a, V158) and anti-GST acceptor beads overnight at 4° C. in a 96-well white plate. Streptavidin donor beads and biotinylated wild-type IgG1 were also incubated overnight at 4° C. in a separate tube and then added to the assay plate the next day. After a two-hour incubation at room temperature with gentle shaking the plates were read in an Envision® plate reader (Perkin Elmer).

[2] = molecular target: T1, cynomolgus FcγR IIb (CD32b); experiment: Alphascreen assay, cynomolgus FcγR CD32b
[3] = molecular target: T2, cynomolgus FcγR IIa (CD32a); experiment: Alphascreen assay, cynomolgus FcγR CD32a (R)
human FcγR IIa (CD32a) = molecular target: T3, human FcγR IIa (CD32a); experiment: Alphascreen assay, human FcγR CD32a (R)
[4] = molecular target: cynomolgus FcγR III (CD16a) (cynomolgus, UniProt Q8SPW2 17-208, limits assumed); experiment: Alphascreen assay, cynomolgus FcγR CD16a
human FcγR IIb (CD32b) = molecular target: T4, human FcγR IIb (CD32b); experiment: Alphascreen assay, human FcγR CD32b
[5] = molecular target: T7, human FcRIII-GST (CD16a, V158); experiment: Alphascreen assay, human FcγR CD16a
Description: as §1, §2

[6] = molecular target: T7, human FcRIII-GST (CD16a, V158); experiment: Alphascreen
Description: as §1, §2

[7] = molecular target: T7, human FcRIII-GST (CD16a, V158); experiment: Alphascreen, competitive format, competitor biotinylated wild-type IgG1
Description: as §1, §2

[8] = molecular target: T5, human LTα1β2 on phorbol myristate …; experiment: FACS direct binding on PMA-activated II-23 cells, mean fluorescence (MFI)
Description: The binding affinity of the monomeric LTβR:scFc was also evaluated by FACS analysis (FIG. 59B). FACS was done on II-23 cells according to the methods of Eldredge et al. (Eldredge, Berkowitz et al. 2006). FACS binding assays using flow cytometry were done according to the method previously described (Force, Walter et al. 1995). Briefly, in direct binding assays human LTα1β2 was detected on phorbol myristate acetate activated II-23 cells (American Type Culture Collection (ATCC) Manassas, Va.) in FACS buffer with varied concentrations of either the LTβRIgG or biotinylated LTβRIgG (bLTβRIgG). Cells were incubated on ice for 1-2 h then washed with PBS and centrifuged. The appropriate steptavidin phycoerythrin or anti-hFc phycoerythrin labeled secondary (Molecular Probes, Eugene, Oreg.) in FACS buffer was added and incubated with the cells for an additional 1 h and washed again. The fluorescent staining of the cellular bound LTβRIgG on the II-23 cells was quantified by determining the mean channel fluorescence by FACS. Both the FACS and ELISA show the LTβRscFc has a reduced binding affinity compared with LTβRIgG.

[9] = molecular target: T6, LTα1β2 (coated on ELISA plates); experiment: ELISA on plates coated with 5 ug/ml LTα1β2, detected with anti-human HRP secondary antibody. The value is parameter C (midpoint) of the four-parameter fit y = ((A-D)/(1+(x/C)^B))+D printed under the plot. The unit is taken from the x axis.
Description: FIG. 59A depicts the results of an ELISA evaluating the binding affinity of the monomeric LTβR:scFc to LTα1β2. ELISA plates were coated overnight at 4° C. with 5 ug/ml LTα1β2 in PBS. Plates were then blocked with 1% Casein in 10 mM PBS, pH 7.0, then washed with 10 mM PBS, pH 7.0, 0.1% Tween 20 (wash buffer) three times. LTβR:IgG or LTBβ:scFc serially diluted into 10 mM PBS, 362 mM NaCl, 0.055 Tween-20, 0.1% Casein, 5% FBS pH 7.0 (assay diluent) and incubated for 1 h, then washed with wash buffer. To each well was added Donkey anti-human heavy and light specific HRP (Jackson Labs) conjugated secondary antibody diluted 1:5000 in assay diluents for 60 min then washed with PBS. The HRP was developed using tetramethybenzidine and hydrogen peroxide in 100 mM NaAcetate pH 4.0 after several minutes, the assay was stopped by the addition of 100 uL of 1N sulfuric acid and sample absorbance read at 450 nm.

Row | Binder | EC50 [1] | EC50 [2] | EC50 [3] | EC50 (human FcγR IIa (CD32a)) | EC50 [4] | EC50 (human FcγR IIb (CD32b)) | EC50 [5] | IC50 (read off the curve) [1] | fold weaker binding against WT IgG1 [6] | fold lower affinity against fully glycosylated WT human IgG1 [7] | EC50 (read off the curve) [8] | EC50 [9]
1 | Hu5C8, conventional human IgG1 anti-CD40L antibody (antibody, N-glycan at EU N297; biotinylated (sites not given) in the CD40L ELISA, Human IgG1, fully glycosylated, bivalent; Biotinylated in the CD40L ELISA; also called WT 5c8 hIgG1; WT 5C8 hIgG1) heavy: not shown light: DIVLTQSPATLSVSPGERATISCRASQRVSSSTYSYMHWYQQKPGQPPKLLIKYASNLESGVPARFSGSGSGTDFTLTISSVEPEDFATYYCQHSWEIPPTFGGGTKLEIKRTVAAPSVFIFPPSDEQLKSGTASVVCLLNNFYPREAKVQWKVDNALQSGNSQESVTEQDSKDSTYSLSSTLTLSKADYEKHKVYACEVTHQGLSSPVTKSFNRGEC | 12 nM | 52 nM | 359 nM | 511 nM | 37 nM | 292 nM | 22 nM | – | – | – | – | –
2 | 1×G4S-linked hemiglycosylated 5C8 scFc IgG1 antibody (pEAG2066) (antibody, plasmid not given; also called hemi-glycosylated 1×-G4S linked scFc; 1×G4S linked scFc) heavy: not shown light: DIVLTQSPATLSVSPGERATISCRASQRVSSSTYSYMHWYQQKPGQPPKLLIKYASNLESGVPARFSGSGSGTDFTLTISSVEPEDFATYYCQHSWEIPPTFGGGTKLEIKRTVAAPSVFIFPPSDEQLKSGTASVVCLLNNFYPREAKVQWKVDNALQSGNSQESVTEQDSKDSTYSLSSTLTLSKADYEKHKVYACEVTHQGLSSPVTKSFNRGEC | 689 nM | – | – | – | – | – | – | ~70 | ~60 fold | ~57 fold | – | –
3 | 3×G4S-linked hemiglycosylated 5C8 scFc IgG1 antibody (pASK043) (antibody, One heavy scFc chain and one light chain (monovalent); also called monovalent 3×G4S-linked hemiglycosylated scFc; hemi-glycosylated 3×-G4S linked scFc) heavy: not shown light: DIVLTQSPATLSVSPGERATISCRASQRVSSSTYSYMHWYQQKPGQPPKLLIKYASNLESGVPARFSGSGSGTDFTLTISSVEPEDFATYYCQHSWEIPPTFGGGTKLEIKRTVAAPSVFIFPPSDEQLKSGTASVVCLLNNFYPREAKVQWKVDNALQSGNSQESVTEQDSKDSTYSLSSTLTLSKADYEKHKVYACEVTHQGLSSPVTKSFNRGEC | 77 nM | 72 nM | 221 nM | 949 nM | 89 nM | 552 nM | 59 nM | – | – | ~4 fold | – | –
4 | 3×G4S-linked fully glycosylated 5C8 scFc IgG1 antibody (ASK048) (antibody, also called fully glycosylated 3×G4S linked scFc) heavy: not shown light: DIVLTQSPATLSVSPGERATISCRASQRVSSSTYSYMHWYQQKPGQPPKLLIKYASNLESGVPARFSGSGSGTDFTLTISSVEPEDFATYYCQHSWEIPPTFGGGTKLEIKRTVAAPSVFIFPPSDEQLKSGTASVVCLLNNFYPREAKVQWKVDNALQSGNSQESVTEQDSKDSTYSLSSTLTLSKADYEKHKVYACEVTHQGLSSPVTKSFNRGEC | – | 17 nM | 206 nM | 304 nM | 32 nM | 183 nM | 18 nM | – | – | – | – | –
5 | LTβR:IgG, dimeric (Fc fusion, not shown: a dimerising Fc or GST; small tags and cut ends, Dimeric through its Fc, which is left out. A biotinylated form (bLTβRIgG) was also used in FACS., Conventional dimeric receptor-Fc fusion used as the comparator; also called bLTβRIgG (biotinylated)) QAVPPYASENQTCRDQEKEYYEPQHRICCSRCPPGTYVSAKCSRIRDTVCATCAENSYNEHWNYLTICQLCRPCDPVMGLEEIAPCTSKRKTQCRCQPGMFCAAWALECTHCELLSDCPPGTEAELKDEVGKGNNHCVPCKAGHFQNTSSPSARCQPHTRCENQGLVEAAPGTAQSDTTCKNPLEPLPPEMSGTMLM | – | – | – | – | – | – | – | – | – | – | ~0.1 µg/mL | 0.028 µg/mL
